Test results published in PMC7483736, “Catalytic specificity of the Lactobacillus plantarum cystathionine γ-lyase presumed by the crystallographic analysis” (Scientific Reports, 2020).
Positions count from the first letter of the chain named. Numbers in names are those of the source.

How the values were obtained:
L. plantarum CGL [1] = molecular target: T1, L. plantarum CGL (Lactiplantibacillus plantarum, UniProt F9UT53, K194A); assay: X-ray crystal structure, […] Å; format: binding; conditions: covalent; external aldimine with PLP at active site, inactive mutant
T1 construct: gene cblB; C-terminal His6 tag (kept), pET-21a(+), E. coli BL21(DE3); homotetramer, active site between two subunits; PCR primers (translated) give N-terminus MRTLTMKFETQ and C-terminus FASIQAD before LE-His6
T1 sequence (F9UT53 entry or part of it K194A): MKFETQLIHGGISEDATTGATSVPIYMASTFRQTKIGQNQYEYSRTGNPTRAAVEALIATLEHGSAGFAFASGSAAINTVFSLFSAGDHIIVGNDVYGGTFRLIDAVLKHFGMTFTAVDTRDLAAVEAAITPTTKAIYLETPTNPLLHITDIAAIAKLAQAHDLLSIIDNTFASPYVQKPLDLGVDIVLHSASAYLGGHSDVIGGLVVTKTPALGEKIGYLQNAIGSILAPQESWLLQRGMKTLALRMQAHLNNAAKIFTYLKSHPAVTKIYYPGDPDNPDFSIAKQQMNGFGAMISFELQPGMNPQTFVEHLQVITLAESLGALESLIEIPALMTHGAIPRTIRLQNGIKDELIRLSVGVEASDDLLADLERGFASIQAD

[2] = molecular target: K194A mutant of L. plantarum CGL (cystathionine γ-lyase from Lactobacillus plantarum SN35N) (Lactobacillus plantarum SN35N); assay: crystal structure; K194A CGL at 9 mg/mL with PLP and 2 mM cystathionine or 2 mM L-serine; sitting-drop vapor diffusion, precipitant 0.4 M KH2PO4 and 0.4 M Na2HPO4; tetramer seen in the crystal
L. plantarum CGL [3] = molecular target: T1, L. plantarum CGL; assay: X-ray crystal structure, […] Å; format: binding; conditions: covalent; external aldimine with PLP, substrate analogue, phosphate at distal carboxyl site
H2S release as PbS, A390 [4] = substrate: N[C@@H](CS)C(=O)O; assay: H2S release as PbS, A390; format: biochemical, Lactiplantibacillus plantarum; conditions: L-cysteine beta-lyase, 100 mM HEPES-KOH pH 7.5, 5 mM TCEP, 0.4 mM lead(II) nitrate, 37 °C
Source text: (§1) H2S release as PbS, A390 on L. plantarum CGL

H2S release as PbS, A390 [5] = substrate: N[C@@H](CCS)C(=O)O; assay: H2S release as PbS, A390; format: biochemical, Lactiplantibacillus plantarum; conditions: L-homocysteine gamma-lyase
Source text: as §1

[6] = substrate: N[C@@H](CSSC[C@H](N)C(=O)O)C(=O)O; assay: lactate dehydrogenase-coupled pyruvate formation, NADH A340; format: biochemical, Lactiplantibacillus plantarum; conditions: L-cystine beta-lyase, 100 mM HEPES-KOH pH 7.5, 0.2 mM NADH, 37 °C
Source text: lactate dehydrogenase-coupled pyruvate formation, NADH A340 on L. plantarum CGL

DTNB thiol release, A412 = substrate: N[C@@H](CCSC[C@H](N)C(=O)O)C(=O)O; assay: DTNB thiol release, A412; format: biochemical, Lactiplantibacillus plantarum; conditions: cystathionase, 100 mM HEPES-KOH pH 7.5, 0.5 mM DTNB, 37 °C
Source text: DTNB thiol release, A412 on L. plantarum CGL

[7] = 100 mM HEPES-KOH pH 7.5, 5 mM TCEP, 0.4 mM lead(II) nitrate, 37 °C
[8] = buffer same, fitted with substrate inhibition, called inaccurate by authors

## N[C@@H](CCSC[C@H](N)C(=O)O)C(=O)O [cystathionine]
L. plantarum CGL [1]
  X-ray crystal structure, 3.10 Å: Cystathionine was found in the crystal structure as a part of the external aldimine

## K194A mutant of L. plantarum CGL (cystathionine γ-lyase from Lactobacillus plantarum SN35N) (enzyme)
[2]
  stoichiometry N: 4

## N[C@@H](CO)C(=O)O [L-serine]
L. plantarum CGL [3]
  X-ray crystal structure, 2.75 Å: L-serine was also found as part of the external aldimine formed with PLP

B1: L. plantarum CGL (Lactiplantibacillus plantarum WCFS1) (protein)
chain: MKFETQLIHGGISEDATTGATSVPIYMASTFRQTKIGQNQYEYSRTGNPTRAAVEALIATLEHGSAGFAFASGSAAINTVFSLFSAGDHIIVGNDVYGGTFRLIDAVLKHFGMTFTAVDTRDLAAVEAAITPTTKAIYLETPTNPLLHITDIAAIAKLAQAHDLLSIIDNTFASPYVQKPLDLGVDIVLHSASKYLGGHSDVIGGLVVTKTPALGEKIGYLQNAIGSILAPQESWLLQRGMKTLALRMQAHLNNAAKIFTYLKSHPAVTKIYYPGDPDNPDFSIAKQQMNGFGAMISFELQPGMNPQTFVEHLQVITLAESLGALESLIEIPALMTHGAIPRTIRLQNGIKDELIRLSVGVEASDDLLADLERGFASIQAD
notes: C-terminal His6 tag (kept), pET-21a(+), E. coli BL21(DE3); homotetramer, active site between two subunits; PCR primers (translated) give N-terminus … and C-terminus FASIQAD before LE-His6
H2S release as PbS, A390 [4]
  Km: 35000 ± 6000 µM
  kcat: 0.3 ± 0.03 s⁻¹
  kcat/Km: 8.6 ± 1.8 M⁻¹ s⁻¹
H2S release as PbS, A390 [5]; [7]
  Km: 6300 ± 700 µM
  kcat: 0.081 ± 0.004 s⁻¹
  kcat/Km: 13 ± 1 M⁻¹ s⁻¹
[6]
  Km: 120 ± 10 µM
  kcat: 0.12 ± 0.01 s⁻¹
  kcat/Km: 1000 ± 100 M⁻¹ s⁻¹
DTNB thiol release, A412
  Km: 450 ± 10 µM
  kcat: 0.49 ± 0.01 s⁻¹
  kcat/Km: 1100 ± 100 M⁻¹ s⁻¹

B2: L. plantarum CGL (Lactiplantibacillus plantarum WCFS1; Y97F) (protein)
chain: B1 chain with Y97F
notes: as for B1
H2S release as PbS, A390 [4]; pH 7.5
  Km: 160 ± 30 µM
  kcat: 0.015 ± 0.001 s⁻¹
  kcat/Km: 96 ± 18 M⁻¹ s⁻¹
H2S release as PbS, A390 [5]; [8]
  Km: 1200 ± 800 µM
  kcat: 0.042 ± 0.02 s⁻¹
  kcat/Km: 35 ± 27 M⁻¹ s⁻¹
[6]
  Km: 56 ± 9 µM
  kcat: 0.1 ± 0.01 s⁻¹
  kcat/Km: 1800 ± 300 M⁻¹ s⁻¹
DTNB thiol release, A412
  Km: 770 ± 210 µM
  kcat: 0.0056 ± 0.0007 s⁻¹
  kcat/Km: 7.2 ± 2.2 M⁻¹ s⁻¹
